Assay results as given in the supplement of paper PMC7877785.
± gives the uncertainty stated by the source.

Test: self-splicing fitness, log relative to wild type (ln ratio); higher = more splicing; Tetrahymena group I intron in knt gene, E. coli kanamycin selection, DiMSum; sequences stand for … in CUCUCU…GGAGGGAAAAGUUAUCAGGCAUGCACCUGGUAGCUAGUCUUUAAACCAAUAGAUUGCAUCGGUUUAAAAGGCAAGACCGUCAAAUUGCGGGAAAGGGGUCAACAGCCGUUCAGUACCAAGUCUCAGGGGAAACUUUGAGAUGGCCUUGCAAAGGGUAUGGUAAUAAGCUGACGGACAUGGUCCUAACCACGCAGCCAAGUCCUAAGUCAACAGAUCUUCUGUUGAUAUGGAUGCAGUUCACAGACUAAAUGUCGGUCGGGGAAGAUGUAUUCUUCUCAUAAGAUAUAGUCGGACCUCUCCUUAAUGGGAGCUAGCGGAUGAAGUGAUGCAACACUGGAGCCGCUGGGAACUAAUUUGUAUGCGAAAGUAUAUUGAUUAGUUUUGGAGUACUCGUGGUCG
Outline: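 Library with all eight P1ex-region intron nucleotides randomised, intron inside the knt kanamycin-resistance gene on pET-22b(+), in E. coli BL21(DE3). Cells grew overnight at 37°C or 30°C on LB agar with or without 25 μg/mL kanamycin (plus 100 μg/mL carbenicillin, 50 μM IPTG, 0.2% rhamnose), in six replicate transformations. Pooled colonies were amplicon-sequenced on Illumina HiSeq 2500. DiMSum fitness is the error-weighted combination of wild-type-normalised replicate fold changes, kanamycin versus none.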

| Sequence | self-splicing fitness (ln) (30 °C) | self-splicing fitness (ln) (37 °C) |
| --- | --- | --- |
| GCAAAGCAAUAUUACGUUUA | -2.29 ± 0.12 | -1.75 ± 0.13 |
| CGAGAGCAAUAUUACGGGGG | -3.83 ± 0.43 | -3.14 ± 0.47 |
| UUCUAGCAAUAUUACGUCGA | -1.02 ± 0.13 | -0.474 ± 0.15 |
| UCGUAGCAAUAUUACGAGAA | -2.57 ± 0.49 | -1.61 ± 0.41 |
| CCGAAGCAAUAUUACGACUA | -2.1 ± 0.37 | -2.65 ± 0.36 |
| GAGAAGCAAUAUUACGUGCA | -0.762 ± 0.084 | -0.666 ± 0.094 |
| GCCCAGCAAUAUUACGUGGG | -3.2 ± 0.12 | -3.07 ± 0.2 |
| CGAUAGCAAUAUUACGUAUU | -3.53 ± 0.25 | -2.61 ± 0.24 |
| UCCUAGCAAUAUUACGUUGU |  | -1.99 ± 0.29 |
| UGUCAGCAAUAUUACGGGUA | -0.294 ± 0.093 | 0.208 ± 0.11 |
| UGUAAGCAAUAUUACGCAUC | -3.16 ± 0.31 | -1.74 ± 0.23 |
| ACUUAGCAAUAUUACGCUGU | -3.85 ± 0.2 | -2.19 ± 0.17 |
| UGCAAGCAAUAUUACGUUUC | -4.31 ± 0.26 | -3.24 ± 0.17 |
| GUUAAGCAAUAUUACGCGGG | -2.2 ± 0.12 | -1.69 ± 0.16 |
| ACUGAGCAAUAUUACGAUCU | -1.28 ± 0.12 | -0.653 ± 0.1 |
| CCCGAGCAAUAUUACGGUCA | -4.25 ± 0.46 | -2.57 ± 0.26 |
| UAAGAGCAAUAUUACGUUGG | -2.87 ± 0.28 |  |
| UGACAGCAAUAUUACGCAGC | -3.89 ± 0.33 | -2.43 ± 0.27 |
| AGUAAGCAAUAUUACGGGGC | -3.29 ± 0.36 | -2.29 ± 0.34 |

| Sequence | self-splicing fitness (ln) (30 °C) | self-splicing fitness (ln) (37 °C) |
| --- | --- | --- |
| UGCAAGCAAUAUUACGAUGU | -2.73 ± 0.16 | -2.14 ± 0.19 |
| GAGUAGCAAUAUUACGCCUG | -1.23 ± 0.13 | -0.972 ± 0.15 |
| CACAAGCAAUAUUACGGUUG | -2.5 ± 0.1 | -1.59 ± 0.12 |
| UAGUAGCAAUAUUACGCCCA | 0.0306 ± 0.38 |  |
| GGGGAGCAAUAUUACGGUGU | -3.87 ± 0.37 | -1.37 ± 0.22 |
| CGCUAGCAAUAUUACGCAUC | -3.88 ± 0.36 | -2.66 ± 0.29 |
| AGAGAGCAAUAUUACGGGUA | -4.04 ± 0.42 | -1.47 ± 0.19 |
| AGAUAGCAAUAUUACGUGAA | -1.95 ± 0.082 | -1.85 ± 0.12 |
| AGUCAGCAAUAUUACGAGCA | -0.935 ± 0.12 | -0.0144 ± 0.14 |
| UACGAGCAAUAUUACGCAAC | -2.85 ± 0.22 | -2.19 ± 0.26 |
| UUGGAGCAAUAUUACGGUUG | -3.97 ± 0.28 | -3.38 ± 0.31 |
| UCUUAGCAAUAUUACGGGGG | -2.89 ± 0.39 | -2.51 ± 0.3 |
| AGUGAGCAAUAUUACGACGU | -0.966 ± 0.059 | -0.385 ± 0.066 |
| GGGUAGCAAUAUUACGGCAG | -3.66 ± 0.4 | -2.62 ± 0.4 |
| UGUCAGCAAUAUUACGGUAG | -0.675 ± 0.07 | -0.235 ± 0.091 |
| CGAGAGCAAUAUUACGUAUU | -2.53 ± 0.28 | -1.4 ± 0.28 |
| ACGCAGCAAUAUUACGUCCU | -0.15 ± 0.058 | 0.354 ± 0.07 |
| CAUUAGCAAUAUUACGAGAU | -4.04 ± 0.46 | -2.9 ± 0.24 |
| CCUAAGCAAUAUUACGGUUG | -3.92 ± 0.19 | -2.07 ± 0.15 |
